Test results taken from the Human Domainome abundance scans (Beltran et al. 2025).
± gives the uncertainty stated by the source.

B1: TOX high mobility group box family member 3, residues 256 to 323; numbered along this chain, O15405 (parent)
chain: QKPVSAYALFFRDTQAAIKGQNPNATFGEVSKIVASMWDSLGEEQKQVYKRKTEAAKKEYLKALAAYR

Variants of: B1
Assay: abundance fitness (aPCA) (normalised: wild type 0, dead -1); higher = more abundant; growth selection in yeast, the domain comes from the species named
Conditions: Homo sapiens
For QKPVSAYALFFRDTQAAIKGQNPNATFGEVSKIPASMWDSLGEEQKQVYKRKTEAAKKEYLKALAAYR [V34P], the abundance fitness was -0.689 ± 0.11. In the case of QKPVSAYALFFRDTQAAIKGQNPNATFGEVSKIFASMWDSLGEEQKQVYKRKTEAAKKEYLKALAAYR [V34F], the abundance fitness is reported as -0.956 ± 0.17. Variant QKPVSAYALFFRDTQAAIKGQNPNATFGEVSKIWASMWDSLGEEQKQVYKRKTEAAKKEYLKALAAYR [V34W] has an abundance fitness of -0.92 ± 0.15. For QKPVSAYALFFRDTQAAIKGQNPNATFGEVSKIVASMWDSLGEEQKQVYKRKTELAKKEYLKALAAYR [A55L], the abundance fitness was -0.058 ± 0.041. Work on QKPVSAYALFFRDTQAAIKGQNPNATFGEVSKIVASMWDSLGEEQKQVYKRKTEWAKKEYLKALAAYR [A55W] yielded an abundance fitness of -0.297 ± 0.058. In the case of QKPVSAYALFFRDTQAAIKGQNPNATFGEVSKIVASMWDSFGEEQKQVYKRKTEAAKKEYLKALAAYR [L41F], the abundance fitness is reported as -0.507 ± 0.15. Work on QKPVSAYALFFRDTQAAIKGQNPNATFGEVSKIVASMWDSCGEEQKQVYKRKTEAAKKEYLKALAAYR [L41C] yielded an abundance fitness of -0.592 ± 0.11. For QKPVSAYALFFRDTQAAIKGQNPNATFGEVSKIVASMWDSLGEEQKQVYKRKTEACKKEYLKALAAYR [A56C], the abundance fitness was -0.104 ± 0.078. QKPVSAYALFFRDTQAAIKGQNPNATFGEVSKIVASMWDSLGEEQKQVYKRKTEAGKKEYLKALAAYR [A56G] gave an abundance fitness of -0.017 ± 0.057. Variant QKPVSAYALFFRDTQAAIKGQNPNATFGEVSKIVASMWDSLGEEQKQVYKRKTEAAQKEYLKALAAYR [K57Q] has an abundance fitness of -0.021 ± 0.09. QKPVSAYALFFRDTQAAIKGQNPNATFGEVSKIVASMWDSLGEEQKQVYKRKTEAAMKEYLKALAAYR [K57M] gave an abundance fitness of 0.036 ± 0.088. For QKPVSAYALFFKDTQAAIKGQNPNATFGEVSKIVASMWDSLGEEQKQVYKRKTEAAKKEYLKALAAYR [R12K], the abundance fitness was 0.022 ± 0.12. QKPVSAYALFFHDTQAAIKGQNPNATFGEVSKIVASMWDSLGEEQKQVYKRKTEAAKKEYLKALAAYR [R12H] gave an abundance fitness of 0.062 ± 0.15. For QKPVSAYALFFRDTQAAIKGQNPNATFGEVSKIVASMWDSLREEQKQVYKRKTEAAKKEYLKALAAYR [G42R], the abundance fitness was -0.275 ± 0.052. Variant QKPVSAYALFFRDTQAAIKGQNPNATFGEVSKIVASMWDSLDEEQKQVYKRKTEAAKKEYLKALAAYR [G42D] has an abundance fitness of 0.067 ± 0.085. QKPVSAYALFFRDTQAAIKGQNPNATFGEVSKIVASTWDSLGEEQKQVYKRKTEAAKKEYLKALAAYR [M37T] gave an abundance fitness of -0.036 ± 0.075. Work on QKPVSAYALFFRDTQAAIKGQNPNITFGEVSKIVASMWDSLGEEQKQVYKRKTEAAKKEYLKALAAYR [A25I] yielded an abundance fitness of -0.121 ± 0.066. QKPVSAYALFFRDTQAAIKGQNPNLTFGEVSKIVASMWDSLGEEQKQVYKRKTEAAKKEYLKALAAYR [A25L] showed an abundance fitness of -0.155 ± 0.07. With KKPVSAYALFFRDTQAAIKGQNPNATFGEVSKIVASMWDSLGEEQKQVYKRKTEAAKKEYLKALAAYR [Q1K] the abundance fitness was 0.247 ± 0.15. AKPVSAYALFFRDTQAAIKGQNPNATFGEVSKIVASMWDSLGEEQKQVYKRKTEAAKKEYLKALAAYR [Q1A] showed an abundance fitness of -0.474 ± 0.16. Work on QKPVSAYALFFRDTQAAIKGQNPNATFGEVSKIVASMWDSLGEEQEQVYKRKTEAAKKEYLKALAAYR [K46E] yielded an abundance fitness of -1.05 ± 0.19. Work on QKPVSAYALFFRDTQAAIKGQNPNATFGEVSKIVASMWDSLGEEQKQVYKRKTEAAKKEYLKAHAAYR [L64H] yielded an abundance fitness of 0.285 ± 0.085. For QKPVSAYALFFRDTQAAIKGQNPNATFGEVSKIVASMWDSLGEEQKQVYKRKTEAAKKEYLKANAAYR [L64N], the abundance fitness was 0.173 ± 0.1. Work on QKPVSAYALFFRDTQAAIKGQNPNATFGEVSKIVASMWDSLGEEQKQVYKRKTEAAKKEYLKAFAAYR [L64F] yielded an abundance fitness of -0.273 ± 0.095. In the case of QKPVSAYALFFRDTQAAIKGQNPNATFGEVSKIVASMWDLLGEEQKQVYKRKTEAAKKEYLKALAAYR [S40L], the abundance fitness is reported as -0.258 ± 0.055. QKPVSAYALFFRDTQAAIKGQNPNATFGKVSKIVASMWDSLGEEQKQVYKRKTEAAKKEYLKALAAYR [E29K] gave an abundance fitness of -0.534 ± 0.15. With QKKVSAYALFFRDTQAAIKGQNPNATFGEVSKIVASMWDSLGEEQKQVYKRKTEAAKKEYLKALAAYR [P3K] the abundance fitness was -0.035 ± 0.072. Variant QKPVSAYALFFRDTQAAIKGQNPNATFGEVSKIVASMWDSLGEENKQVYKRKTEAAKKEYLKALAAYR [Q45N] has an abundance fitness of -0.232 ± 0.16. Variant QKPVSAYALFFRDLQAAIKGQNPNATFGEVSKIVASMWDSLGEEQKQVYKRKTEAAKKEYLKALAAYR [T14L] has an abundance fitness of -0.314 ± 0.064. Work on QKPVSAYALFFRDGQAAIKGQNPNATFGEVSKIVASMWDSLGEEQKQVYKRKTEAAKKEYLKALAAYR [T14G] yielded an abundance fitness of -0.709 ± 0.11. With QKPVSAYALFFRDDQAAIKGQNPNATFGEVSKIVASMWDSLGEEQKQVYKRKTEAAKKEYLKALAAYR [T14D] the abundance fitness was -0.704 ± 0.17. Variant QKPVSAYALFFRDTQAAIKGQNPNATFGEVSAIVASMWDSLGEEQKQVYKRKTEAAKKEYLKALAAYR [K32A] has an abundance fitness of -0.048 ± 0.058. Work on QKPVSAYALFFRDTQAAIKGQNPHATFGEVSKIVASMWDSLGEEQKQVYKRKTEAAKKEYLKALAAYR [N24H] yielded an abundance fitness of 0.028 ± 0.097. For QKPVSAYALFFRDTQAAIKGQNPLATFGEVSKIVASMWDSLGEEQKQVYKRKTEAAKKEYLKALAAYR [N24L], the abundance fitness was -0.304 ± 0.049. In the case of QKPVSAYALFFRDTQTAIKGQNPNATFGEVSKIVASMWDSLGEEQKQVYKRKTEAAKKEYLKALAAYR [A16T], the abundance fitness is reported as -0.047 ± 0.081. QKPVSAYAWFFRDTQAAIKGQNPNATFGEVSKIVASMWDSLGEEQKQVYKRKTEAAKKEYLKALAAYR [L9W] gave an abundance fitness of -0.218 ± 0.11. Variant QKPVSAYADFFRDTQAAIKGQNPNATFGEVSKIVASMWDSLGEEQKQVYKRKTEAAKKEYLKALAAYR [L9D] has an abundance fitness of -0.217 ± 0.29. Work on QKPVSAYAKFFRDTQAAIKGQNPNATFGEVSKIVASMWDSLGEEQKQVYKRKTEAAKKEYLKALAAYR [L9K] yielded an abundance fitness of -0.425 ± 0.13. QKPVSAYALFFRDTQAAIKGQNPNATFGEVCKIVASMWDSLGEEQKQVYKRKTEAAKKEYLKALAAYR [S31C] showed an abundance fitness of -0.163 ± 0.072. In the case of QKPVSAYALFFRDTQAAIKGQNPNATFGEVGKIVASMWDSLGEEQKQVYKRKTEAAKKEYLKALAAYR [S31G], the abundance fitness is reported as -0.224 ± 0.057.
